In paper PMC3902126:
Where two headings read alike, the source gives them in different places.

Experiments:
[1] = target: Brucella abortus RicA (Rab2 interacting conserved protein A), His6-RicA (1-175) (Brucella abortus); assay: ITC
[2] = target: Brucella abortus RicA (Rab2 interacting conserved protein A), His6-RicA (1-175) (Brucella abortus); assay: ITC; remark: listed apart in the source

With “Homo sapiens Rab2 (1-212) (from UniProt P61019 1-212) (natural protein)” the Kd [1] was 36 µM and the Kd [2] was 40 µM.
